The target of assay [1] is T1, Recombinant human IL-23 receptor (IL-23R) extracellular domain (ECD) protein (human, UniProt Q5VWK5 24-355).
T1 construct: also called human IL-23R ECD; hu IL-23R ECD
T1 sequence: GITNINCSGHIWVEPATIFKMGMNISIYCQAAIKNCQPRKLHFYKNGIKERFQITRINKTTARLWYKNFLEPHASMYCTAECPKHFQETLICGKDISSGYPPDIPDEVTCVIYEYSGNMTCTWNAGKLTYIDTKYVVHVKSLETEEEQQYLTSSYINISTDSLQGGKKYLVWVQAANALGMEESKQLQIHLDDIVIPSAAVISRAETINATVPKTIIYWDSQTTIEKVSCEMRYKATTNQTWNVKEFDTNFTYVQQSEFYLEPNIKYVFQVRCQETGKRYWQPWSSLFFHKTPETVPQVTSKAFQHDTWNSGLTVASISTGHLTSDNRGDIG
Briefly: SPR Biacore 8K, purified, analysis 1. As for the experimental part: (§1) Affinity by SPR using Biacore 8K. Affinity measurements using Surface Plasmon Resonance (SPR) were performed using a Biacore 8K system (Cytiva). […] Approximately 9000-10000 RU (response units) of mAbs were immobilized. The kinetic experiments were performed at 25° C. in running buffer 1× of (HBS-P+ Buffer 10× (Cytiva #BR100671)+100 μg/ml BSA). To perform kinetic experiments, approximately 150 RU of mAbs were captured followed by injections of human IL-23R or rat IL-23R at concentrations ranging from 0.8 nM to 500 nM (in a 5-fold serial dilution). The association phase was monitored for 3 minutes at 50 μL/min, then followed by 30 minutes of buffer flow (dissociation phase). […] The collected data were processed using Biacore insight Evaluation software (Version 3.0.12.15655). The kinetic analysis of the data was performed using a Langmuir 1:1 binding model. The result for each mAb was reported in the format of Ka (On-rate), Kd (Off-rate) and KD (equilibrium dissociation constant).
(In general: In SPR one partner is held on a chip, and binding of the other changes the refractive index at the surface.)

Assay [2] addresses T1, Recombinant human IL-23 receptor …. Briefly: SPR Biacore 8K, supernatant, analysis 2. The procedure, abridged: (§2)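 Antibodies (~150 RU) were captured and human or rat IL-23R ECD injected at 0.8–500 nM in 5-fold steps, at 25 °C in HBS-P+ with 100 μg/ml BSA. Association ran 3 min at 50 μL/min, followed by 30 min dissociation. Ka, Kd and KD came from a Langmuir 1:1 fit.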
In assay [3] the target is T2, rat IL-23R extracellular domain (ECD) protein (rat).
T2 construct: also called rat IL-23R ECD; F1LX96 amino acids 24-354
T2 chain: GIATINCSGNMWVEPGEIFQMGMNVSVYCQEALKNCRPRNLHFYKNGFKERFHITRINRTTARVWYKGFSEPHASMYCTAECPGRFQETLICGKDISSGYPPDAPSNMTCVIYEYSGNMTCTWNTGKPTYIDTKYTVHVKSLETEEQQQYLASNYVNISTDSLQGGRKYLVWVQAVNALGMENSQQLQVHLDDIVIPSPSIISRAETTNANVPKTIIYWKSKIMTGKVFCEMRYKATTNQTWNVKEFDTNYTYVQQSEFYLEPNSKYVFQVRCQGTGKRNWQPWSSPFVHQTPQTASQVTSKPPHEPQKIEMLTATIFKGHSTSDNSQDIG
Briefly: SPR Biacore 8K, supernatant. The procedure, abridged: as §2

Assay [4] has as its target T1, Recombinant human IL-23 receptor …. Briefly: SPR Biacore 8K, purified, analysis 2. As for the experimental part: as §1
The target is the same in assay [5]. Briefly: SPR ProteOn, purified. As to the method:
Affinity by SPR using ProteOn. Affinity measurements using Surface Plasmon Resonance (SPR) were performed using a ProteOn XPR36 system (BioRad). […] Approximately 6000 RU (response units) of mAbs were immobilized. The kinetic experiments were performed at 25° C. in running buffer (DPBS+0.01% P20+100 μg/ml BSA). […] The association phase was monitored for 3 minutes at 50 μL/min, then followed by 10 minutes of buffer flow (dissociation phase). The chip surface was regenerated with two 18 second pulses of 100 mM H3PO4 (Sigma, Cat #7961) at 100 μL/min. The collected data were processed using ProteOn Manager software. First, the data was corrected for background using inter-spots. Then, double reference subtraction of the data was performed by using the buffer injection for analyte injections. The kinetic analysis of the data was performed using a Langmuir 1:1 binding model. The result for each mAb was reported in the format of Ka (On-rate), Kd (Off-rate) and KD (equilibrium dissociation constant).

Assay [6] has as its target T2, rat IL-23R extracellular domain (ECD) …. The assay can be described thus: SPR Biacore 8K, purified. As for the experimental part:
as §1

Broadly, the Kd is the equilibrium constant for the complex coming apart. The term koff denotes a measure of how fast the partners let go of each other. The term kon denotes the rate constant with which the complex forms.

B1: I23RB76 (antibody, mouse IgG2a, kappa, V domains shown)
VH: EVQLQQSGPELVKPGASVKMSCKASGYTFTDYYMNWMKQSHGKSLEWIGYISPKNGRTGYNQKFKGKATLTVDKSSTTAYMELRSLTSEDSAVYYCAKSNGYYALDYWGQGTTVTVSS
VL: DIVLTQSPATLCVTPGETVSLSCRASQNIYKNLHWFQQKSHRSPRLLIKYASDSISGIPSRFTGSGSGTDYTLSINSVKPEDEGIYYCLQGYSTPWTFGGGTKLEIKR
notes: mouse immunization; mouse IgG2a/kappa
For the molecule B1, in assay [1], the Kd was 0.0891 nM, the koff is 5.62e-05 s⁻¹ and the kon amounted to 631000 M⁻¹ s⁻¹. Moreover, in assay [2], the Kd turned out to be 0.0805 nM, the dissociation rate constant (koff) is 3.9e-05 s⁻¹ and the kon is 484000 M⁻¹ s⁻¹. The binding result in assay [3] is “no binding (tested: 500 nM)”. In assay [4], the Kd came out at 0.0859 nM, the koff stood at 4.14e-05 s⁻¹ and the kon worked out at 482000 M⁻¹ s⁻¹.

B2: I23RB94 (antibody, mouse IgG2a, kappa, V domains shown)
VH: DVQLQESGPELKKPGETVKISCKASGYTFTNYGMNWVRQAPGKSLKWMGWINTNTGEPAYAEEFKGRFAFSLETSASTAYLQINNLKNEDMATYFCARVRQTARATRGYFDVWGTGTTVTVSS
VL: DIVMTQSHKFMSTSVGDRVSITCKASQDVNTAVAWYQQKPGQSPKLLIYSAFYRYPGVPDRFTGSGSGTDFTFTINSVQAEDLAVYCCQQHYTSPLTFGDGTRLEIKR
notes: as for B1
For B2, in assay [1], the Kd was found to be 0.8 nM, the koff was found to be 0.00063 s⁻¹ and the association rate constant (kon) was 787000 M⁻¹ s⁻¹. Moreover, in assay [2], the Kd was 1 nM, the dissociation rate constant (koff) worked out at 0.000686 s⁻¹ and the kon turned out to be 685000 M⁻¹ s⁻¹. Further, in assay [3], the binding result is reported as “no binding (tested: 500 nM)”. Also, in assay [4], the Kd amounted to 1.15 nM, the koff was 0.000753 s⁻¹ and the kon stood at 656000 M⁻¹ s⁻¹.

B3: I23RB6 (antibody, mouse IgG2a, kappa, V domains shown)
VH: QVQLVQSGAEVKKPGSSVKVSCKASGGTFSSYAISWVRQAPGQGLEWMGGIIPIFGTANYAQKFQGRVTITADESTSTAYMELSSLRSEDTAVYYCARGRYIRSYDYFDYWGQGTLVTVSS
VL: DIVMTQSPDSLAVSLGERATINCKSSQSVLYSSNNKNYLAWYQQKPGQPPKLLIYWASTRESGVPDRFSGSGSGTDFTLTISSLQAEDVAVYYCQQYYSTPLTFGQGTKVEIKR
notes: phage display; human V regions, mouse IgG2a/kappa constant regions
Take B3: in assay [5], the binding result is given as “no binding”.

B4: I23RB92 (antibody, mouse IgG2a, kappa, V domains shown)
VH: EVQLQQSGPEVVKPGASVKISCKASGYTFTDHTMDWVKQSHGKNLEWIGYIYPKSGGTGYNQKFKNKATLTVDKSSSTAYMEFHSLTSDDSAVYYCARWGLRRDGFVYWGQGTLVTVSA
VL: DIKMTQSPASLAVSLGQRATISCRASQSVSTSKYDYIHWYQQKSGQPPRLLIKYASNLESGVPARFSGSGSGTDFTLNIHPVEEEDTATYYCQHTWEIPYTFGSGTKLELKR
notes: as for B1
For B4, in assay [1], the Kd is below 0.109 nM, the koff was below 2.89e-05 s⁻¹ and the on-rate (kon) amounted to 265000 M⁻¹ s⁻¹. For the same molecule, in assay [2], the Kd is below 0.124 nM, the koff was below 2.89e-05 s⁻¹ and the association rate constant (kon) turned out to be 233000 M⁻¹ s⁻¹. For the same molecule, the binding result in assay [3] is on record as “no binding (tested: 500 nM)”. Besides, in assay [4], the Kd is below 0.12 nM, the koff is below 2.89e-05 s⁻¹ and the kon amounted to 240000 M⁻¹ s⁻¹.

B5: I23RB101 (antibody, mouse IgG2a, kappa, V domains shown)
VH: EVQLQQSGAEVKKPGSSVKVSCKASGGTFSSYAISWVRQAPGQGLEWMGWINPNSGGTNYAQKFQGRVTMTRDTSISTAYMELSRLRSDDTAVYYCARGYRYGPLDGFDIWGQGTTLTVSS
VL: DIVMTQSHKFMSTSIGDRVSITCKTSQDVRTAVAWYQQKPGQSPKLLIYSASYRYIGVPDRFTGSGSGTDFTFTISDVQAEDLALYYCQQHYSTPYTFGGGTKLEIKR
notes: as for B1
In the case of B5, the binding result in assay [6] is listed as “no binding (tested: 500 nM)”.

B6: I23RB4 (antibody, mouse IgG2a, kappa, V domains shown)
VH: QVQLVQSGAEVKKPGSSVKVSCKASGGTFKTYAIHWVRQAPGQGLEWMGWIIPIFGTANYAQKFQGRVTITADESTSTAYMELSSLRSEDTAVYYCARDGGYYGSRYYPRSYYFDYWGQGTLVTVSS
VL: EIVLTQSPATLSLSPGERATLSCRASQSVSSYLAWYQQKPGQAPRLLIYDASNRATGIPARFSGSGSGTDFTLTISSLEPEDFAVYYCQQRSNWPLTFGQGTKVEIKR
notes: as for B3
B6: in assay [1], the Kd turned out to be 0.588 nM, the koff turned out to be 0.000135 s⁻¹ and the kon amounted to 230000 M⁻¹ s⁻¹. Further, in assay [2], the dissociation constant (Kd) was 0.477 nM, the koff is 0.000121 s⁻¹ and the kon is 254000 M⁻¹ s⁻¹. For the same molecule, the binding result in assay [3] is reported as “no binding (tested: 500 nM)”. For the same molecule, in assay [5], the Kd stood at 0.151 nM, the koff worked out at 0.000235 s⁻¹ and the kon was 1.56e+06 M⁻¹ s⁻¹.

B7: I23RB3 (antibody, mouse IgG2a, kappa, V domains shown)
VH: QVQLVQSGAEVKKPGSSVKVSCKASGGTFKSYSIHWVRQAPGQGLEWMGGIIPYFGYANYAQKFQGRVTITADESTSTAYMELSSLRSEDTAVYYCARERGYYGSIYYGGGFDYWGQGTLVTVSS
VL: EIVLTQSPATLSLSPGERATLSCRASQSVSSYLAWYQQKPGQAPRLLIYDASNRATGIPARFSGSGSGTDFTLTISSLEPEDFAVYYCQQRSNWPLTFGQGTKVEIKR
notes: as for B3
For the molecule B7, in assay [1], the Kd amounted to 4.76 nM, the off-rate (koff) came to 0.000255 s⁻¹ and the kon stood at 53600 M⁻¹ s⁻¹. Further, in assay [2], the Kd came out at 3.99 nM, the koff was found to be 0.000233 s⁻¹ and the kon came out at 58300 M⁻¹ s⁻¹. The binding result in assay [3] is “no binding (tested: 500 nM)”. In assay [5], the Kd was found to be 1.92 nM, the koff came out at 0.000335 s⁻¹ and the kon is 174000 M⁻¹ s⁻¹.

B8: I23RB2 (antibody, mouse IgG2a, kappa, V domains shown)
VH: QVQLVQSGAEVKKPGSSVKVSCKASGGTFSSYAISWVRQAPGQGLEWMGGIIPIFGTANYAQKFQGRVTITADESTSTAYMELSSLRSEDTAVYYCARDRYRYLGANGFDYWGQGTLVTVSS
VL: EIVLTQSPATLSLSPGERATLSCRASQSVSSYLAWYQQKPGQAPRLLIYDASNRATGIPARFSGSGSGTDFTLTISSLEPEDFAVYYCQQRSNWPLTFGQGTKVEIKR
notes: as for B3
Regarding B8, the Kd in assay [5] is above 4000 nM.

B9: I23RB9 (antibody, mouse IgG2a, kappa, V domains shown)
VH: QVQLVQSGAEVKKPGSSVKVSCKASGGTFSSYAISWVRQAPGQGLEWMGGIIPIFGTANYAQKFQGRVTITADESTSTAYMELSSLRSEDTAVYYCARDRSYSYGLSGLGYYGFDYWGQGTLVTVSS
VL: EIVLTQSPATLSLSPGERATLSCRASQSVSSYLAWYQQKPGQAPRLLIYDASNRATGIPARFSGSGSGTDFTLTISSLEPEDFAVYYCQQRSNWPLTFGQGTKVEIKR
notes: as for B3
Take B9: in assay [5], the binding result is reported as “no binding”.
